Results published in patent US20240018502A1.
Residue numbers refer to the chain shown, from its start. Names may count otherwise. Blank lines part the entries; values can stand above or below the binder they belong to.

Molecular target: plasma purified human complement protein C3 (human) (UniProt P01024)
Test: cell-based or functional assay

Chain of plasma purified human complement protein C3 (human) (P01024 23-667, chain 1 of 2): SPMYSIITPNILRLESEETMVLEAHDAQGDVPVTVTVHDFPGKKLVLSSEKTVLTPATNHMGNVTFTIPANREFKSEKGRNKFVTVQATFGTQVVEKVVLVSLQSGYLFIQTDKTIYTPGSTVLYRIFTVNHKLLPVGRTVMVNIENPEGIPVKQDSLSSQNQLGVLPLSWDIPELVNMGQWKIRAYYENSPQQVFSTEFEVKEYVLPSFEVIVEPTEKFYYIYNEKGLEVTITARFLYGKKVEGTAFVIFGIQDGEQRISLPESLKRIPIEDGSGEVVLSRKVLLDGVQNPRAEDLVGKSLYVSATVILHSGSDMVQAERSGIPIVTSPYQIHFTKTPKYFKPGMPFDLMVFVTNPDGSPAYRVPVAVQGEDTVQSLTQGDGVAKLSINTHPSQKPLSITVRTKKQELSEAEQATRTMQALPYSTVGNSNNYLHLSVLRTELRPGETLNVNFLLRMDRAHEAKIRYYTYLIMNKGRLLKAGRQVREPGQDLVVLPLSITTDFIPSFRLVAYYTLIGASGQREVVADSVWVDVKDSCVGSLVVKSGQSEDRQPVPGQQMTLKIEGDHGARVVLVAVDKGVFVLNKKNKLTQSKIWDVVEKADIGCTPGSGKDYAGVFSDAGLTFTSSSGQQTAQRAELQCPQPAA
Chain of plasma purified human complement protein C3 (human) (P01024 672-1663, chain 2 of 2): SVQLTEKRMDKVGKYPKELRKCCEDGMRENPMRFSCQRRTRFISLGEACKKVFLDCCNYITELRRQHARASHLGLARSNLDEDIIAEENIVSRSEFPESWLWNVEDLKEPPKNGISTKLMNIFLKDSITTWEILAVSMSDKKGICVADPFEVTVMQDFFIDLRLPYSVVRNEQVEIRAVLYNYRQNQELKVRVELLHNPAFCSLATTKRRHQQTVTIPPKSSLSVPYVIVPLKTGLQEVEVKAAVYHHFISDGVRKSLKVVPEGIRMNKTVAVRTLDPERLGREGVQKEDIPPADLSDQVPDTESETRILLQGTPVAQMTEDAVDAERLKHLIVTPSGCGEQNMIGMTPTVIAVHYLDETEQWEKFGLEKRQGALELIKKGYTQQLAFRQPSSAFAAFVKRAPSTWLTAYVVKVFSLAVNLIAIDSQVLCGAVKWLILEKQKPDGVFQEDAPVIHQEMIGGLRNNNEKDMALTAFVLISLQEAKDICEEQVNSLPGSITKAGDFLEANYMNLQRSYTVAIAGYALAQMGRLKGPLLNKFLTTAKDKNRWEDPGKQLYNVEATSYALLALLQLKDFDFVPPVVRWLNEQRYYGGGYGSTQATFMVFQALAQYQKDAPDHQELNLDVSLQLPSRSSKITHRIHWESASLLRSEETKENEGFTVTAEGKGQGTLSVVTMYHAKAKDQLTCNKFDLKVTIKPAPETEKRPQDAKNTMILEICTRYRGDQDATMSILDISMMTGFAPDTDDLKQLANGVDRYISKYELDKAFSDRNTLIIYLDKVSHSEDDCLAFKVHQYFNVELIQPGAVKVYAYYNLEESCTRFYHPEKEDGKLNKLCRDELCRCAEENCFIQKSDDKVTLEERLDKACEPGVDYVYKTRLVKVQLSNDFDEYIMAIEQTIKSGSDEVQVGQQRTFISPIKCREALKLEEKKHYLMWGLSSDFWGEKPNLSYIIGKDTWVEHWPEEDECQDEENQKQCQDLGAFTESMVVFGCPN

B1: MTSP-1 Q38H/I41S/D60bT/F60eS/D96K/F97G/ins97aV/T98P/F99L/C122S/G151H/Q175L/Q192D (enzyme)
chain: VVGGTDADEGEWPWQVSLHALGHGHSCGASLISPNWLVSAAHCYIDTRGSRYSDPTQWTAFLGLHDQSQRSAPGVQERRLKRIISHPFFNKGVPLDYDIALLELEKPAEYSSMVRPISLPDASHVFPAGKAIWVTGWGHTQYGGTHALILQKGEIRVINQTTCENLLPQLITPRMMCVGFLSGGVDSCDGDSGGPLSSVEADGRIFQAGVVSWGDGCAQRNKPGVYTRLPLFRDWIKENTGV
EC50 of hC3 cleavage: 22.2 nM

B2: MTSP-1 protease domain I41A/Y60gW/ins97aE/F99L/C122S/Q175M/Q192T (enzyme)
chain: VVGGTDADEGEWPWQVSLHALGQGHACGASLISPNWLVSAAHCYIDDRGFRWSDPTQWTAFLGLHDQSQRSAPGVQERRLKRIISHPFFNDFETLDYDIALLELEKPAEYSSMVRPISLPDASHVFPAGKAIWVTGWGHTQYGGTGALILQKGEIRVINQTTCENLLPQMITPRMMCVGFLSGGVDSCTGDSGGPLSSVEADGRIFQAGVVSWGDGCAQRNKPGVYTRLPLFRDWIKENTGV
EC50 hC3 cleavage: 8.9 nM

B4: MTSP-1 protease domain I41S/Y59F/ins97aV/C122S/Q192A (enzyme)
chain: B2 chain with A26S, Y44F, W52Y, E93V, L95F, M170Q, T189A
EC50 hC3 cleavage: 16.6 nM

B5: MTSP-1 protease domain I41S/Y59F/F97S/ins97aV/S116Y/C122S/Q192G/D217V (enzyme)
chain: B2 chain with A26S, Y44F, W52Y, F92S, E93V, L95F, S112Y, M170Q, T189G, D215V
EC50 hC3 cleavage: 8.22 nM

B7: MTSP-1 protease domain I41S/Y60gW/ins97aN/F99L/C122S/Q175R/Q192T (enzyme)
chain: B2 chain with A26S, E93N, M170R
EC50 hC3 cleavage: 12 nM

B8: MTSP-1 protease domain I41S/ins97aV/C122S/Q192V/D217V (enzyme)
chain: B2 chain with A26S, W52Y, E93V, L95F, M170Q, T189V, D215V
EC50 hC3 cleavage: 11 nM

B11: MTSP-1 protease domain I41S/ins97aT/F99L/C122S/Q175R/Q192H (enzyme)
chain: B2 chain with A26S, W52Y, E93T, M170R, T189H
EC50 hC3 cleavage: 27.5 nM

B12: MTSP-1 protease domain Q38H/I41S/D96G/ins97aG/C122S/G151N/Q192A (enzyme)
chain: B2 chain with Q23H, A26S, W52Y, D91G, E93G, L95F, G146N, M170Q, T189A
EC50 hC3 cleavage: 34.6 nM

B13: MTSP-1 protease domain I41T/ins97aA/F99Y/C122S/Q175L/Q192A (enzyme)
chain: B2 chain with A26T, W52Y, E93A, L95Y, M170L, T189A
EC50 hC3 cleavage: 28 nM

B15: MTSP-1 Q38H/I41S/D60bT/Y60gW/D96K/F97G/ins97aV/T98P/F99L/C122S/G151H/Q175L/Q192D (enzyme)
chain: B1 chain with S50F, Y52W
EC50 of hC3 cleavage: 8.64 nM

B16: MTSP-1 protease domain Q38H/I41A/D96R/ins97aQ/C122S (enzyme)
chain: B2 chain with Q23H, W52Y, D91R, E93Q, L95F, M170Q, T189Q
EC50 hC3 cleavage: 7.6 nM

B18: MTSP-1 Q38H/I41S/D60bT/F60eS/Y60gW/D96K/F97G/ins97aV/F99L/C122S/G151H/Q175L/Q192D (enzyme)
chain: B1 chain with Y52W, P94T
EC50 of hC3 cleavage: 9.83 nM

B19: MTSP-1 protease domain I41S/S90T/ins97aV/C122S/Q192N/D217V (enzyme)
chain: B2 chain with A26S, W52Y, S85T, E93V, L95F, M170Q, T189N, D215V
EC50 hC3 cleavage: 13.4 nM

B20: MTSP-1 protease domain I41S/S90T/ins97aV/C122S/Q192V/D217V (enzyme)
chain: B2 chain with A26S, W52Y, S85T, E93V, L95F, M170Q, T189V, D215V
EC50 hC3 cleavage: 10.5 nM

B21: MTSP-1 protease domain I41A/ins97aY/F99L/C122S/Q175R/Q192H (enzyme)
chain: B2 chain with W52Y, E93Y, M170R, T189H
EC50 hC3 cleavage: 14.8 nM

B22: MTSP-1 protease domain I41S/F93L/ins97aV/C122S/Q192V/D217V (enzyme)
chain: B2 chain with A26S, W52Y, F88L, E93V, L95F, M170Q, T189V, D215V
EC50 hC3 cleavage: 9.82 nM

B23: MTSP-1 protease domain I41S/S90P/ins97aV/C122S/Y146E/Q192N/D217V (enzyme)
chain: B2 chain with A26S, W52Y, S85P, E93V, L95F, Y142E, M170Q, T189N, D215V
EC50 hC3 cleavage: 6.47 nM

B24: MTSP-1 protease domain I41A/F97G/ins97aM/T98L/C122S (enzyme)
chain: B2 chain with W52Y, F92G, E93M, T94L, L95F, M170Q, T189Q
EC50 hC3 cleavage: 40.1 nM

B29: MTSP-1 protease domain I41S/ins97aV/C122S/Q192G/Q209L (enzyme)
chain: B2 chain with A26S, W52Y, E93V, L95F, M170Q, T189G, Q207L
EC50 hC3 cleavage: 33.4 nM

B30: MTSP-1 protease domain L33M/Q38F/I41S/D96A/ins97aW/C122S/G151N/Q192S (enzyme)
chain: B2 chain with L18M, Q23F, A26S, W52Y, D91A, E93W, L95F, G146N, M170Q, T189S
EC50 hC3 cleavage: 10.6 nM

B31: MTSP-1 protease domain I41S/D96E/ins97aG/C122S/G151Q/Q192A (enzyme)
chain: B2 chain with A26S, W52Y, D91E, E93G, L95F, G146Q, M170Q, T189A
EC50 hC3 cleavage: 44.4 nM

B32: MTSP-1 protease domain Q38H/I41A/D96A/ins97aA/C122S/G151D/Q192T (enzyme)
chain: B2 chain with Q23H, W52Y, D91A, E93A, L95F, G146D, M170Q
EC50 hC3 cleavage: 9.25 nM

B34: MTSP-1 protease domain I41S/Y59F/ins97aV/C122S/Q192G (enzyme)
chain: B2 chain with A26S, Y44F, W52Y, E93V, L95F, M170Q, T189G
EC50 hC3 cleavage: 25.6 nM

B37: MTSP-1 protease domain I41S/Y59F/ins97aV/C122S/G187D/Q192V/D217V (enzyme)
chain: B2 chain with A26S, Y44F, W52Y, E93V, L95F, M170Q, G184D, T189V, D215V
EC50 hC3 cleavage: 8.35 nM

B39: MTSP-1 protease domain Q38F/I41V/D96Q/ins97aT/C122S/G151D (enzyme)
chain: B2 chain with Q23F, A26V, W52Y, D91Q, E93T, L95F, G146D, M170Q, T189Q
EC50 hC3 cleavage: 9.89 nM

B40: MTSP-1 protease domain I41A/Y60gW/D96F/F97G/F99M/C122S/Q175W/Q192A (enzyme)
chain: VVGGTDADEGEWPWQVSLHALGQGHACGASLISPNWLVSAAHCYIDDRGFRWSDPTQWTAFLGLHDQSQRSAPGVQERRLKRIISHPFFNFGTMDYDIALLELEKPAEYSSMVRPISLPDASHVFPAGKAIWVTGWGHTQYGGTGALILQKGEIRVINQTTCENLLPQWITPRMMCVGFLSGGVDSCAGDSGGPLSSVEADGRIFQAGVVSWGDGCAQRNKPGVYTRLPLFRDWIKENTGV
EC50 hC3 cleavage: 4.06 nM

B41: MTSP-1 protease domain I41G/Y60gW/F99L/C122S/Q175R/Q192S (enzyme)
chain: B40 chain with A26G, F91D, G92F, M94L, W169R, A188S
EC50 hC3 cleavage: 6.95 nM

B42: MTSP-1 Q38H/I41S/D60bT/F60eS/Y60gW/D96K/F97G/T98P/F99L/C122S/G151H/Q175L/Q192D (enzyme)
chain: B40 chain with Q23H, A26S, D47T, F50S, F91K, T93P, M94L, G145H, W169L, A188D
EC50 of hC3 cleavage: 7.88 nM

B43: MTSP-1 protease domain A35V/I41S/Y59F/C122S/Q192D/D217V (enzyme)
chain: B40 chain with A20V, A26S, Y44F, W52Y, F91D, G92F, M94F, W169Q, A188D, D214V
EC50 hC3 cleavage: 39.8 nM

Now from value to binder:

EC50 hC3 cleavage: 10.9 nM
B3: MTSP-1 protease domain Q38H/I41S/ins97aV/A112V/C122S/Q192A/Q209L (enzyme)
chain: B2 chain with Q23H, A26S, W52Y, E93V, L95F, A108V, M170Q, T189A, Q207L

EC50 hC3 cleavage: 12.5 nM
B6: MTSP-1 protease domain Q38Y/I41T/D96M/ins97aS/C122S/G151N (enzyme)
chain: B2 chain with Q23Y, A26T, W52Y, D91M, E93S, L95F, G146N, M170Q, T189Q

EC50 hC3 cleavage: 16.7 nM
B9: MTSP-1 protease domain Q38H/I41S/D96S/ins97aK/C122S/G151N/Q192A (enzyme)
chain: B2 chain with Q23H, A26S, W52Y, D91S, E93K, L95F, G146N, M170Q, T189A

EC50 hC3 cleavage: 4.49 nM
B10: MTSP-1 protease domain Q38W/I41V/D96R/ins97aA/C122S/G151N (enzyme)
chain: B2 chain with Q23W, A26V, W52Y, D91R, E93A, L95F, G146N, M170Q, T189Q

EC50 hC3 cleavage: 17.9 nM
B14: MTSP-1 protease domain Q38H/I41S/D96Q/ins97aT/C122S/G151N/Q192A (enzyme)
chain: B2 chain with Q23H, A26S, W52Y, D91Q, E93T, L95F, G146N, M170Q, T189A

EC50 hC3 cleavage: 16 nM
B17: MTSP-1 protease domain Q38H/I41S/D96V/ins97aA/C122S/G151N/Q192A (enzyme)
chain: B2 chain with Q23H, A26S, W52Y, D91V, E93A, L95F, G146N, M170Q, T189A

EC50 hC3 cleavage: 9.5 nM
B25: MTSP-1 protease domain Q38W/I41S/D96R/ins97aA/C122S/G151N/Q192A (enzyme)
chain: B2 chain with Q23W, A26S, W52Y, D91R, E93A, L95F, G146N, M170Q, T189A

EC50 hC3 cleavage: 19.2 nM
B26: MTSP-1 protease domain Q38H/I41S/D96K/ins97aT/C122S/G151K/Q192A (enzyme)
chain: B1 chain with T47D, S50F, G92F, V93T, P94T, L95F, H146K, L170Q, D189A

EC50 hC3 cleavage: 25.6 nM
B27: MTSP-1 protease domain Q38H/I41S/D96K/ins97aS/C122S/G151P/Q192S (enzyme)
chain: B1 chain with T47D, S50F, G92F, V93S, P94T, L95F, H146P, L170Q, D189S

EC50 hC3 cleavage: 10.2 nM
B28: MTSP-1 protease domain Q38H/I41S/D96Q/ins97aA/C122S/Q192T (enzyme)
chain: B2 chain with Q23H, A26S, W52Y, D91Q, E93A, L95F, M170Q

EC50 hC3 cleavage: 26.8 nM
B33: MTSP-1 protease domain Q38H/I41S/D96K/ins97aD/C122S/G151N/Q192S (enzyme)
chain: B1 chain with T47D, S50F, G92F, V93D, P94T, L95F, H146N, L170Q, D189S

EC50 hC3 cleavage: 44.7 nM
B35: MTSP-1 protease domain Q38H/I41T/D96K/ins97aL/C122S/G151N/Q192A (enzyme)
chain: B2 chain with Q23H, A26T, W52Y, D91K, E93L, L95F, G146N, M170Q, T189A

EC50 hC3 cleavage: 10.8 nM
B36: MTSP-1 protease domain Q38H/I41T/D96M/ins97aA/C122S/G151D (enzyme)
chain: B2 chain with Q23H, A26T, W52Y, D91M, E93A, L95F, G146D, M170Q, T189Q

EC50 hC3 cleavage: 4.26 nM
B38: MTSP-1 protease domain Q38Y/I41A/D96I/ins97aQ/C122S (enzyme)
chain: B2 chain with Q23Y, W52Y, D91I, E93Q, L95F, M170Q, T189Q
